Data: patent US20230104578A1 (ADRENOMED, published 2023)
Where two headings read alike, the source gives them in different places. Ends that are not written are not given here.

Key:
[1] = biological target: T1, human recombinant adrenomedullin receptor (CRLR+RAMP3) (human); assay: cell-based or functional assay
[2] = biological target: T1, human recombinant adrenomedullin …; assay: cell-based or functional assay; remark: listed apart in the source

T1 sequence (Q16602 whole entry, chain 1 of 2): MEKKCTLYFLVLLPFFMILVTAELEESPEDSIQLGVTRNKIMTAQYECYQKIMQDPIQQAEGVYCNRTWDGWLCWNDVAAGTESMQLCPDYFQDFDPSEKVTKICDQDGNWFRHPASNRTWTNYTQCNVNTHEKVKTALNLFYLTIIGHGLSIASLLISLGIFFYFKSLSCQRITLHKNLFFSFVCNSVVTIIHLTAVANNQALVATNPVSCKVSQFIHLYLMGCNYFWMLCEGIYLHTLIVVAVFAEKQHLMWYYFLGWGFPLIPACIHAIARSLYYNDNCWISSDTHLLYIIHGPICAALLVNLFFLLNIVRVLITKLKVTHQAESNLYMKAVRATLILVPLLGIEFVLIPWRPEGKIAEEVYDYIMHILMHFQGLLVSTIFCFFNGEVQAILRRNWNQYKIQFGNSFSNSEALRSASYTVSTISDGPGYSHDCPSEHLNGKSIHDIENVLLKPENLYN
T1 sequence (O60896 whole entry, chain 2 of 2, further chain): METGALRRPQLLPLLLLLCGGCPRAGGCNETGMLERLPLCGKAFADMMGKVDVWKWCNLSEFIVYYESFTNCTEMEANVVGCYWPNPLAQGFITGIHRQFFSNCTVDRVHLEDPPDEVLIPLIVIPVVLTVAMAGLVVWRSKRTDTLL

Binder: YRQSMNQGSRSNGCRFGTCTFQKLAHQIYQLTDKDKDGMAPRNKISPQGY-NH2 (ends and bridges not checked) [Murine ADM 1-50]
- EC50 (read off the curve); cAMP (HTRF), % activation [1]: ~0.08 nM

B1: mature human Adrenomedullin (amino acids 1-52) (peptide)
peptide: YRQSMNNFQGLRSFGCRFGTCTVQKLAHQIYQFTDKDKDNVAPRSKISPQGY-NH2
modifications: ends and bridges not checked
- EC50 (read off the curve); cAMP (HTRF), % activation [2]: ~1 nM
